From patent US9618524B2, “Method, composition, isolation and identification of a plaque particle and related biomarker” (Plaxgen Inc., priority 2012, dated 2017)

B1: Beta-2-glycoprotein 1 (protein)
chain: GRTCPKPDDLPFSTVVPLKTFYEPGEEITYSCKPGYVSRGGMRKFICPLTGLWPINTLKCTPRVCPFAGILENGAVRYTTFEYPNTISFSCNTGFYLNGADSAKCTEEGKWSPELPVCAPIICPPPSIPTFATLRVYKPSAGNNSLYRDTAVFECLPQHAMFGNDTITCTTHGNWTKLPECREVKCPFPSRPDNGFVNYPAKPTLYYKDKATFGCHDGYSLDGPEEIECTKLGNWSAMPSCKASCKVPVKKATVVYQGERVKIQEKFKNGMLHGDKVSFFCKNKEKKCSYTEDAQCIDGTIEVPKCFKEHSSLAFWKTDASDVKPC
B2: Histidine-rich glycoprotein (protein)
chain: VSPTDCSAVEPEAEKALDLINKRRRDGYLFQLLRIADAHLDRVENTTVYYLVLDVQESDCSVLSRKYWNDCEPPDSRRPSEIVIGQCKVIATRHSHESQDLRVIDFNCTTSSVSSALANTKDSPVLIDFFEDTERYRKQANKALEKYKEENDDFASFRVDRIERVARVRGGEGTGYFVDFSVRNCPRHHFPRHPNVFGFCRADLFYDVEALDLESPKNLVINCEVFDPQEHENINGVPPHLGHPFHWGGHERSSTTKPPFKPHGSRDHHHPHKPHEHGPPPPPDERDHSHGPPLPQGPPPLLPMSCSSCQHATFGTNGAQRHSHNNNSSDLHPHKHHSHEQHPHGHHPHAHHPHEHDTHRQHPHGHHPHGHHPHGHHPHGHHPHGHHPHCHDFQDYGPCDPPPHNQGHCCHGHGPPPGHLRRRGPGKGPRPFHCRQIGSVYRLPPLRKGEVLPLPEANFPSFPLPHHKHPLKPDNQPFPQSVSESCPGKFKSGFPQVSMFFTHTFPK
B3: Afamin (protein)
chain: LPTQPRDIENFNSTQKFIEDNIEYITIIAFAQYVQEATFEEMEKLVKDMVEYKDRCMADKTLPECSKLPNNVLQEKICAMEGLPQKHNFSHCCSKVDAQRRLCFFYNKKSDVGFLPPFPTLDPEEKCQAYESNRESLLNHFLYEVARRNPFVFAPTLLTVAVHFEEVAKSCCEEQNKVNCLQTRAIPVTQYLKAFSSYQKHVCGALLKFGTKVVHFIYIAILSQKFPKIEFKELISLVEDVSSNYDGCCEGDVVQCIRDTSKVMNHICSKQDSISSKIKECCEKKIPERGQCIINSNKDDRPKDLSLREGKFTDSENVCQERDADPDTFFAKFTFEYSRRHPDLSIPELLRIVQIYKDLLRNCCNTENPPGCYRYAEDKFNETTEKSLKMVQQECKHFQNLGKDGLKYHYLIRLTKIAPQLSTEELVSLGEKMVTAFTTCCTLSEEFACVDNLADLVFGELCGVNENRTINPAVDHCCKTNFAFRRPCFESLKADKTYVPPPFSQDLFTFHADMCQSQNEELQRKTDRFLVNLVKLKHELTDEELQSLFTNFANVVDKCCKAESPEVCFNEESPKIGN
B4: Alpha-2-HS-glycoprotein (protein)
chain 1: APHGPGLIYRQPNCDDPETEEAALVAIDYINQNLPWGYKHTLNQIDEVKVWPQQPSGELFEIEIDTLETTCHVLDPTPVARCSVRQLKEHAVEGDCDFQLLKLDGKFSVVYAKCDSSPDSAEDVRKVCQDCPLLAPLNDTRVVHAAKAALAAFNAQNNGSNFQLEEISRAQLVPLPPSTYVEFTVSGTDCVAKEATEAAKCNLLAEKQYGFCKATLSEKLGGAEVAVTCMVFQTQPVSSQPQPEGANEAVPTPVVDPDAPPSPPLGAPGLPPAGSPPDSHVL
chain 2: TVVQPSVGAAAGPVVPPCPGRIRHFKV
B5: Inter-alpha-trypsin inhibitor heavy chain H1 (protein)
chain: SKSSEKRQAVDTAVDGVFIRSLKVNCKVTSRFAHYVVTSQVVNTANEAREVAFDLEIPKTAFISDFAVTADGNAFIGDIKDKVTAWKQYRKAAISGENAGLVRASGRTMEQFTIHLTVNPQSKVTFQLTYEEVLKRNHMQYEIVIKVKPKQLVHHFEIDVDIFEPQGISKLDAQASFLPKELAAQTIKKSFSGKKGHVLFRPTVSQQQSCPTCSTSLLNGHFKVTYDVSRDKICDLLVANNHFAHFFAPQNLTNMNKNVVFVIDISGSMRGQKVKQTKEALLKILGDMQPGDYFDLVLFGTRVQSWKGSLVQASEANLQAAQDFVRGFSLDEATNLNGGLLRGIEILNQVQESLPELSNHASILIMLTDGDPTEGVTDRSQILKNVRNAIRGRFPLYNLGFGHNVDFNFLEVMSMENNGRAQRIYEDHDATQQLQGFYSQVAKPLLVDVDLQYPQDAVLALTQNHHKQYYEGSEIVVAGRIADNKQSSFKADVQAHGEGQEFSITCLVDEEEMKKLLRERGHMLENHVERLWAYLTIQELLAKRMKVDREERANLSSQALQMSLDYGFVTPLTSMSIRGMADQDGLKPTIDKPSEDSPPLEMLGPRRTFVLSALQPSPTHSSSNTQRLPDRVTGVDTD

System: Tau plaque particles
Test: Mass spectroscopy proteomics, semi-quantitative binding affinity of serum proteins (plaqueproteome, Table 2)
Design: species or system human
Conditions: higher number = stronger affinity
How it was run: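 Serum or plasma proteins captured on Thioflavin S-labelled Tau plaque particles (Tau-74, Tau-275 oligomers preformed in PBS at 37° C for 2 h; 1 h co-incubation at 37° C) were isolated by FACS sorting, then tryptically digested and identified by MS/MS (Sequest, human UniProt, strict trypsin).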

Row | Molecule | Semi-quantitative analysis of proteins binding to different plaque particles: Tau
1 | B1 | 5
2 | B2 | 12
3 | B3 | 3
4 | B4 | 10
5 | B5 | 18

Target: T1, Abeta-42 plaque particles (Homo sapiens, UniProt P05067)
T1 construct: Abeta 1-42
Test: as above
Conditions: higher number = stronger affinity
How it was run: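 AD patient serum or plasma (50% in PBS) was incubated with Abeta-42 aggregates (30 μg) for 1 h at 37 °C, then stained with Thioflavin S for 30 min. Labeled particles were FACS-sorted, trypsin/Lys-C digested overnight and analyzed by MS/MS. Sequest searched human UniProt; Scaffold/Protein Prophet validated the identifications.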

Row | Molecule | Semi-quantitative analysis of proteins binding to different plaque particles: Abeta-42
6 | B1 | 4
7 | B2 | 7
8 | B3 | 2
9 | B4 | 2
10 | B5 | 7

Target: T2, alpha-synuclein plaque particles (Homo sapiens, UniProt P37840)
T2 construct: 140 amino acids polypeptide
Test: as above
Conditions: higher number = stronger affinity
How it was run: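 AD-subject plasma or serum (800 μL of 50%) mixed with 30 μg preformed alpha-synuclein aggregates for 1 h at 37 °C; Thioflavin S-positive particles isolated by flow sorting. After reduction, acrylamide alkylation and overnight tryptic digestion, serum proteins identified by MS/MS with Sequest and Scaffold.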

Row | Molecule | Semi-quantitative analysis of proteins binding to different plaque particles: Synuclein
11 | B1 | 7
12 | B2 | 9
13 | B3 | 6
14 | B4 | 10
15 | B5 | 10

System: High Density cholesterol (Chl Large) plaque particles
Test: as above
Design: species or system human
Conditions: higher number = stronger affinity
How it was run: (§1)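 Serum or plasma from atherosclerotic subjects, diluted to 50% in PBS, was incubated with cholesterol aggregates (30 μg per 1 mL reaction) at 37° C for 1 hr. Small and large cholesterol plaque particles were sorted by flow cytometry gating, trypsin-digested and analysed by MS/MS against a human UniProt database.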

Row | Molecule | Semi-quantitative analysis of proteins binding to different plaque particles: Chl Large
16 | B1 | 6
17 | B2 | 10
18 | B3 | 6
19 | B4 | 9
20 | B5 | 11

System: Low density cholesterol (Chl small) plaque particles
Test: as above
Design: species or system human
Conditions: higher number = stronger affinity
How it was run: as §1

Row | Molecule | Semi-quantitative analysis of proteins binding to different plaque particles: Chl small
21 | B1 | 6
22 | B2 | 9
23 | B3 | 6
24 | B4 | 11
25 | B5 | 7
